Source: paper doi:10.1101/2020.01.14.905984 (bioRxiv, 2020)

B1: CHUP1_716-982, C-terminal fragment of CHUP1 (domain or fragment)
chain: NKVHRAPELVEFYQSLMKRESKKEGAPSLISSGTGNSSAARNNMIGEIENRSTFLLAVKADVETQGDFVQSLATEVRASSFTDIEDLLAFVSWLDEELSFLVDERAVLKHFDWPEGKADALREAAFEYQDLMKLEKQVTSFVDDPNLSCEPALKKMYKLLEKVEQSVYALLRTRDMAISRYKEFGIPVDWLSDTGVVGKIKLSSVQLAKKYMKRVAYELDSVSGSDKDPNREFLLLQGVRFAFRVHQFAGGFDAESMKAFEELRSRA
B2: CHUP1_611-1004 (CHUP1-C), C-terminal fragment of CHLOROPLAST UNUSUAL POSITIONING 1 (domain or fragment)
chain: ITATGDQSNESNESNEGKASENAATVTKMKLVDIEKRPPRVPRPPPRSAGGGKSTNLPSARPPLPGGGPPPPPPPPGGGPPPPPGGGPPPPPPPPGALGRGAGGGNKVHRAPELVEFYQSLMKRESKKEGAPSLISSGTGNSSAARNNMIGEIENRSTFLLAVKADVETQGDFVQSLATEVRASSFTDIEDLLAFVSWLDEELSFLVDERAVLKHFDWPEGKADALREAAFEYQDLMKLEKQVTSFVDDPNLSCEPALKKMYKLLEKVEQSVYALLRTRDMAISRYKEFGIPVDWLSDTGVVGKIKLSSVQLAKKYMKRVAYELDSVSGSDKDPNREFLLLQGVRFAFRVHQFAGGFDAESMKAFEELRSRAKTESGDNNNNNNNNSNEEESVN

Columns and labels:
crystal structure = molecular target: the molecule itself; experiment: crystal structure
SEC = molecular target: the molecule itself; experiment: SEC

Row | Protein | binding result (crystal structure) | stoichiometry N (SEC)
1 | B1 | binds | –
2 | B2 | – | 2
